The text below walks through data of US7745192.

The series addresses human fibrinogen (UniProt P02671).

Regarding “thrombin resulting from action of Brown snake venom protease”, the “SDS PAGE banding patterns of washed fibrin clots” value is on record as “thrombin resulting from action of Brown snake venom protease converts fibrinogen to fibrin in a similar manner as normal α-thrombin”.
